In article PMC4591102 (European journal of nuclear medicine and molecular imaging, 2015):
Read-outs that look alike come from different tables or passages of the source.

Tests used:
integrin αvβ3 = integrin αvβ3 (Homo sapiens, UniProt P05106+P06756); test: Competitive cell binding assay with ^125I-echistatin in U87MG cells
[1] = Octanol-water partition coefficient; assay type: physicochemical
Dynamic PET = test: Dynamic PET; design: species or system athymic nude mice; conditions: mouse, in vivo; for half-life: iv
[2] = Metabolic stability in urine by radio-HPLC; assay type: in vivo, ICR mice
[3] = Ex vivo biodistribution at 4 h p.i.; design: species or system athymic nude mice; conditions: mouse, in vivo
[4] = Longitudinal static PET with ROI analysis in U87MG tumor-bearing mice; design: species or system athymic nude mice; conditions: mouse, in vivo
[5] = Serum stability by radio-HPLC; assay type: in vitro ADME, mouse
[6] = mouse, U87MG tumor, 10 mg/kg
in vivo = conditions: both, athymic nude, mouse, tumor, 10 mg/kg, total radioactivity

N=C(N)NCCC[C@@H]1NC(=O)[C@H](CCCCNC(=S)Nc2ccc(CC3CN(CC(=O)O)CCN(CC(=O)O)CCN3CC(=O)O)cc2)NC(=O)[C@@H](Cc2ccccc2)NC(=O)[C@H](CC(=O)O)NC(=O)CNC1=O (stereo partly drawn) [NOTA-c(RGDfK)]
IC50 (integrin αvβ3): 507 ± 62 nM

N=C(N)NCCC[C@@H]1NC(=O)[C@H](CCCCNC(=O)COCCOCCNC(=O)COCCOCCNC(=S)Nc2ccc(C[C@H]3CN(CC(=O)O)CCN(CC(=O)O)CCN3CC(=O)O)cc2)NC(=O)[C@@H](Cc2ccccc2)NC(=O)[C@H](CC(=O)O)NC(=O)CNC1=O [^64Cu-NOTA-(PEG)2-c(RGDfK), metal not drawn]
logP [1]: -2.82 ± 0.06
tissue uptake (Dynamic PET): ~4 %ID/g
half-life (Dynamic PET): 4.76 min
radioactive metabolites in urine ([2]; mouse, in vivo): not observed
tissue uptake at 4 h [3]: 2.36 ± 0.31 %ID/g
tissue uptake at 0.5 h [4]: 3.62 ± 0.21 %ID/g
fraction remaining intact in serum ([5]; mouse, serum, 4 h): > 95%

N=C(N)NCCC[C@@H]1NC(=O)[C@H](CCCCNC(=O)[C@H]2O[C@@H](CNC(=O)[C@H]3O[C@@H](CNC(=O)[C@H]4O[C@@H](CNC(=O)[C@H]5O[C@@H](CNC(=O)CCOCCOCCOCCOCCNC(=S)Nc6ccc(C[C@H]7CN(CC(=O)O)CCN(CC(=O)O)CCN7CC(=O)O)cc6)[C@H](O)[C@@H](O)[C@H]5O)[C@H](O)[C@@H](O)[C@H]4O)[C@H](O)[C@@H](O)[C@H]3O)[C@H](O)[C@@H](O)[C@H]2O)NC(=O)[C@@H](Cc2ccccc2)NC(=O)[C@H](CC(=O)O)NC(=O)CNC1=O [^64Cu-NOTA-PEG4-SAA4-c(RGDfK), metal not drawn]
logP [1]: -3.4 ± 0.05
tissue uptake (Dynamic PET; 5.5 MBq): ~4 %ID/g
half-life (Dynamic PET; 5.5 MBq): 4.07 min
tissue uptake at 0.5 h [6]: 0.42 ± 0.14 %ID/g
tissue uptake at 2 h [6]: 0.24 ± 0.06 %ID/g
tissue uptake at 4 h [6]: 0.18 ± 0.03 %ID/g
radioactive metabolites in urine ([2]; urine collected 1 h after administration): not observed
tissue uptake (in vivo): 10 %ID/g
tissue uptake at 4 h ([3]; 10 mg/kg, kidney uptake, ex vivo, with blocking, 4 h p.i., blocking group, c(RGDyK) 10 mg/kg): 1.78 ± 1.04 %ID/g
tissue uptake at 4 h ([3]; 5.5 MBq, U87MG tumor uptake, ex vivo, 4 h p.i., γ-counter): 1.14 ± 0.26 %ID/g
tissue uptake at 4 h ([3]; 5.5 MBq, kidney uptake, ex vivo, 4 h p.i., positive (unblocked) group): 0.96 ± 0.12 %ID/g
tissue uptake at 0.5 h ([4]; 5.5 MBq, U87MG tumor uptake, PET, 0.5 h p.i.): 2.5 ± 0.18 %ID/g
tissue uptake at 2 h ([4]; 5.5 MBq, U87MG tumor uptake, PET, 2 h p.i., n = 3): 1.77 ± 0.38 %ID/g
tissue uptake at 4 h ([4]; 5.5 MBq, U87MG tumor uptake, PET, 4 h p.i., n = 3): 1.67 ± 0.38 %ID/g
fraction remaining intact in serum ([5]; 1 or 4 h incubation in mouse serum at 37°C): > 95%

N=C(N)NCCC[C@@H]1NC(=O)[C@H](CCCCNC(=S)Nc2ccc(CC3CN(CC(=O)O)CCN(CC(=O)O)CCN3CC(=O)O)cc2)NC(=O)[C@@H](Cc2ccccc2)NC(=O)[C@H](CC(=O)O)NC(=O)CNC1=O (stereo partly drawn) [^64Cu-NOTA-c(RGDfK), metal not drawn]
logP [1]: -2.65 ± 0.01
half-life (Dynamic PET): 2.56 min
tissue uptake at 4 h [3]: 2.98 ± 0.52 %ID/g
tissue uptake at 0.5 h [4]: 4.78 ± 0.74 %ID/g
